This note sets out measurements from FireProtDB (doi:10.1016/j.jmb.2004.06.079).

B1: Malate dehydrogenase, P80040 (parent)
chain: MRKKISIIGAGFVGSTTAHWLAAKELGDIVLLDFVEGVPQGKALDLYEASPIEGFDVRVTGTNNYADTANSDVIVVTSGAPRKPGMSREDLIKVNADITRACISQAAPLSPNAVIIMVNNPLDAMTYLAAEVSGFPKERVIGQAGVLDAARYRTFIAMEAGVSVEDVQAMLMGGHGDEMVPLPRFSTISGIPVSEFIAPDRLAQIVERTRKGGGEIVNLLKTGSAYYAPAAATAQMVEAVLKDKKRVMPVAAYLTGQYGLNDIYFGVPVILGAGGVEKILELPLNEEEMALLNASAKAVRATLDTLKSL

Variants of B1 are the subject of this data set. Particulars: Chloroflexus aurantiacus (strain ATCC 29366 / DSM 635 / J-10-fl), Thermal, CD, structure 1GUY, whole UniProt chain shown.
Where [1] appears, read: pH 7.5, potassium phosphate 10 mM.
Where [2] appears, read: pH 6, potassium phosphate 10 mM.

Broadly, the Tm is the temperature at the midpoint of the melting transition. Take E165Q: for the setting “pH 4.4, sodium acetate 10 mM”, the midpoint of thermal melting (Tm) is 85.8 °C and the “change of melting temperature, mutant - wild type (higher = more stable)” value (shortened to “change of melting temperature, mutant”) was 5.4 °C. Further, under setting [1], the Tm was 91.4 °C and the “change of melting temperature, mutant” value turned out to be 23.6 °C.

As for E165K, the Tm reads like this: (pH 4.4, sodium acetate 10 mM) 85 °C; under setting [2], 91.4 °C; under setting [1], 91.7 °C. For the same variant, the “change of melting temperature, mutant” value runs as follows: (pH 4.4, sodium acetate 10 mM) 4.6 °C; under setting [2], 12 °C; under setting [1], 23.9 °C.
